According to IntAct's records for PubMed 26822058:

B1: MARVEL domain-containing protein 2 (Homo sapiens), Q8N4S9 (parent)
chain: MSNDGRSRNRDRRYDEVPSDLPYQDTTIRTHPTLHDSERAVSADPLPPPPLPLQPPFGPDFYSSDTEEPAIAPDLKPVRRFVPDSWKNFFRGKKKDPEWDKPVSDIRYISDGVECSPPASPARPNHRSPLNSCKDPYGGSEGTFSSRKEADAVFPRDPYGSLDRHTQTVRTYSEKVEEYNLRYSYMKSWAGLLRILGVVELLLGAGVFACVTAYIHKDSEWYNLFGYSQPYGMGGVGGLGSMYGGYYYTGPKTPFVLVVAGLAWITTIIILVLGMSMYYRTILLDSNWWPLTEFGINVALFILYMAAAIVYVNDTNRGGLCYYPLFNTPVNAVFCRVEGGQIAAMIFLFVTMIVYLISALVCLKLWRHEAARRHREYMEQQEINEPSLSSKRKMCEMATSGDRQRDSEVNFKELRTAKMKPELLSGHIPPGHIPKPIVMPDYVAKYPVIQTDDERERYKAVFQDQFSEYKELSAEVQAVLRKFDELDAVMSRLPHHSESRQEHERISRIHEEFKKKKNDPTFLEKKERCDYLKNKLSHIKQRIQEYDKVMNWDVQGYS

Variants of: B1
Settings: with plmn_human PLG

| effect of a mutation on the interaction | Variant |
| --- | --- |
| decreasing interaction strength | K217A |
| disrupting interaction strength | K217A;K252A |
| decreasing interaction strength | K252A |
